Source: PMC5430633, “Phosphorylation of the mitochondrial autophagy receptor Nix enhances its interaction with LC3 proteins” (Scientific Reports, 2017)

Key:
Settings in all cases: both partners purified
[1] = biological target: LC3B wild type (for ITC and NMR) (human, UniProt Q9GZQ8 1-120); assay: ITC; 25 °C, VP-ITC; peptides 0.31 mM titrated into 0.018 mM LC3B proteins in 25 steps; 40 mM Na2HPO4, 80 mM NaCl, pH 7.0; one-site binding model
[2] = biological target: T1, LC3B wild type (for ITC and NMR) (human, UniProt Q9GZQ8 1-120); assay: ITC; rows marked WT*: previous set of conditions reported by Novak et al.: 50 mM NaPi, 150 mM NaCl, pH 7.5
[3] = biological target: T1, LC3B wild type (for ITC and NMR); assay: ITC; 25 °C, VP-ITC; peptides 0.31 mM titrated into 0.018 mM LC3B proteins in 25 steps; 40 mM Na2HPO4, 80 mM NaCl, pH 7.0; one-site binding model; remark: listed apart in the source
LC3B R11A (for ITC) = LC3B R11A (for ITC) (human, UniProt Q9GZQ8 1-120, R11A); assay: as above
LC3B K49A (for ITC) = LC3B K49A (for ITC) (human, UniProt Q9GZQ8 1-120, K49A); assay: as above
LC3B K51A (for ITC) = LC3B K51A (for ITC) (human, UniProt Q9GZQ8 1-120, K51A); assay: as above

Binder	Kd [1] [µM]	Ka [2] [M⁻¹]	Kd [2] [µM]	dH [2] [kcal/mol]	stoichiometry N [2]	Ka [3] [M⁻¹]	Kd [3] [µM]	dH [3] [kcal/mol]	stoichiometry N [3]	Ka (LC3B R11A (for ITC)) [M⁻¹]	Kd (LC3B R11A (for ITC)) [µM]	dH (LC3B R11A (for ITC)) [kcal/mol]	stoichiometry N (LC3B R11A (for ITC))	Ka (LC3B K49A (for ITC)) [M⁻¹]	Kd (LC3B K49A (for ITC)) [µM]	dH (LC3B K49A (for ITC)) [kcal/mol]	stoichiometry N (LC3B K49A (for ITC))	Ka (LC3B K51A (for ITC)) [M⁻¹]	Kd (LC3B K51A (for ITC)) [µM]	dH (LC3B K51A (for ITC)) [kcal/mol]
AGLNSSWVELPMNSSNG (Nix LIR motif peptide without phosphorylation of Ser34 and Ser35; also called non-phosphorylated P0 peptide; source: synthetic peptide, bought: GenScript USA Inc, 95% pure) [Nix LIR P0 peptide (unphosphorylated)]	99																			
RPEEQMESDNCSGGDDDWTHLS [p62 LIR peptide]		680000	1.47	-10.5 ± 0.13	0.99 ± 0.01	498000	2.01	-9.38 ± 0.17	1.04 ± 0.01	233000	4.29	-8.22 ± 0.23	1.06 ± 0.02	1.02e+06	0.98	-10.84 ± 0.01	0.99 ± 0.01	34000	29	-4.7 ± 0.01
